# In article PMC3173040:
# Assays:
# actin [1] = target: actin (UniProt P68135); test: SAXS
# actin [2] = target: actin (UniProt P68135); test: SEC-MALS
# [3] = target: VopL fragment 200-484 (1W-VCD) (Vibrio parahaemolyticus) (UniProt Q87GE5); test: SEC-MALS
# [4] = target: 3W-VCD-AviTag bound to quantum dots (Vibrio parahaemolyticus) (UniProt Q87GE5); test: TIRF microscopy
# actin [5] = target: actin (UniProt P68135); test: ITC
substance,measurement,setting,value
VopL fragment 200-484 (1W-VCD) (from UniProt Q87GE5 200-484) (domain or fragment),stoichiometry N (actin molecules per 1W-VCD dimer),actin [1],2
same,stoichiometry N (actin molecules per 1W-VCD dimer),actin [2],2
same,stoichiometry N,[3],2
actin (from UniProt P68135 1-377) (natural protein),percent of filaments associated with Qdots through the pointed end,[4],10.9%
third W domain of VopL (domain or fragment),Kd,actin [5],0.41 µM
